Test results published in US20230212272A1 (LONGBIO PHARMA SUZHOU, published 2023).
Residue numbers refer to the chain shown, from its start.

B1: Eculizumab (antibody, human IgG2, kappa, V domains shown)
VH: QVQLVQSGAEVKKPGASVKVSCKASGYIFSNYWIQWVRQAPGQGLEWMGEILPGSGSTEYTENFKDRVTMTRDTSTSTVYMELSSLRSEDTAVYYCARYFFGSSPNWYFDVWGQGTLVTVSS
VL: DIQMTQSPSSLSASVGDRVTITCGASENIYGALNWYQQKPGKAPKLLIYGATNLADGVPSRFSGSGSGTDFTLTISSLQPEDFATYYCQNVLNTPLTFGQGTKVEIKR
B2: chimeric antibody CHI-16 (antibody, human IgG1, kappa, L234A L235A, V domains shown)
VH: QIQLVQSGPELKKPGETVKISCKASGYTFTNYGMNWVKQAPGKGLKWMGWINTYTGEPTYADDFKGRFAFSLETSASTAYLQINNLKNEDTATYFCTRTKVPLYFAYAMDYWGQGTSVTVSS
VL: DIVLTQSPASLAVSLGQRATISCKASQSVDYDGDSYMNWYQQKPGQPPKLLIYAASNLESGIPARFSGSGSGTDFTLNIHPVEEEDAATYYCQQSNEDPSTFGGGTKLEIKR
B3: humanized antibody 16H46L39am (antibody, human IgG1, kappa, L234A L235A, V domains shown)
VH: QVQLVQSGAEVKKPGASVKVSCKASGYTFTNYGMNWVRQAPGQGLEWMGWINTYTGEPTYADDFKGRFTFTLDTSTSTAYLELSSLRSEDTAVYYCARTKVPLYFAYAMDYWGQGTLVTVSS
VL: DIQLTQSPSSLSASVGDRVTITCKASQSVDYEGDSYLNWYQQKPGKAPKLLIYAASNLESGIPSRFSGSGSGTDFTLTISSLQPEDFATYYCQQSNEDPSTFGGGTKVEIKR
B4: humanized antibody 16H1L2m (antibody, human IgG1, kappa, L234A L235A, V domains shown)
VH: B3 VH with A9S, V11L, T69V, T71S, T76V, T78M, E82Q, L83I, R87K, S88A
VL: DIVLTQSPSSLAVSLGERATINCKASQSVDYEGDSYLNWYQQKPGQPPKLLIYAASNLESGIPDRFSGSGSGTDFTLTISSLQAEDVAVYYCQQSNEDPSTFGGGTKVEIKR

Legend:
[1] = biological target: T1, C5 of normal human serum (NHS) (human, UniProt P01031 19-1676); experiment: cell-based or functional assay
[2] = biological target: T1, C5 of normal human serum (NHS); experiment: cell-based or functional assay; remark: listed apart in the source
human C5 antigen [3] = biological target: T2, human C5 antigen (human, UniProt P01031 19-673; P01031 678-1676); experiment: BLI (ForteBio Octet)
T2 construct: The later ELISAs detect it with an anti-histidine antibody, so it carries a His tag; also called complement component 5

human C5 antigen [4] = biological target: T2, human C5 antigen; experiment: ELISA, antibody coated, human C5 titrated; EC50 is the antigen concentration
Description: The wells were blocked with 2.5% skimmed milk dissolved in a phosphate-buffered saline (PBS) for 1 hour, and washed with a PBST solution (a PBS solution containing 20% Tween). Then, 100 μL of the human C5 gradient diluent (the C5 was diluted to 1 ug/ml, followed by 3 X dilution to give 7 gradients, with 100 μL/well) was added into each well, and incubated at room temperature for 1 hr.
EC₅₀ can be used to evaluate the concentration of antigen at the 50% binding capacity of various antibodies to the antigen.

| Binder | IC50 (ng/ml), inhibition of classical pathway hemolysis of sheep red blood cells by 1% NHS [1] | IC50 (ng/ml), classical pathway (CP) hemolysis inhibition [2] | IC90 (ng/ml), classical pathway (CP) hemolysis inhibition [2] | Kd (human C5 antigen [3]) | koff (human C5 antigen [3]) | kon (human C5 antigen [3]) | EC50 (human C5 antigen [4]) |
| --- | --- | --- | --- | --- | --- | --- | --- |
| B1 | 401 ng/mL | 559 ng/mL | 1340 ng/mL |  |  |  |  |
| B2 | 204 ng/mL | 302 ng/mL | 500 ng/mL |  |  |  |  |
| B3 |  | 330 ng/mL | 507 ng/mL | 0.369 nM | 7.86e-05 s⁻¹ | 213000 M⁻¹ s⁻¹ | 0.169 µg/mL |
| B4 |  | 347 ng/mL | 511 ng/mL | 0.359 nM | 7.81e-05 s⁻¹ | 217000 M⁻¹ s⁻¹ | 0.117 µg/mL |
